PMC12809912 (2025)
Ends that are not written are not given here. * marks the point of attachment. Biotin = O=C1N[C@H]2[C@H](CS[C@H]2CCCCC(=O)*)N1

B1: mouse monoclonal antibody clone 4F5 (anti-DEFA5) (antibody, V domains shown)
VH: QVQLQQSGAELVRPGASVKMSCKALGYTFFDYEMHWMKQTPVYGLEWIGAIHPGSGDTAYNQKFKGKATLTADKSSNTAYMELSSLTSEDSAVYYCTREGTVVAPFDYWGQGTTLTVSS
VL: DVLMTQTPLSLPVSLGDQASISCRSSQSIVHSNGNTYLEWYLQKPGQSPKLLINKVSNRFSGVPDRFSGSGSGTDFTLKISRVEAEDLGVYYCFQGSYVPYTFGGGTKLEIK
modifications: Fc glycosylation, G1F lower and afucosylated G0 ~15 % (intact ESI-MS)
B2: mouse monoclonal antibody clone 1A8 (anti-DEFA5) (antibody, V domains shown)
VH: B1 VH
VL: B1 VL
modifications: Fc glycosylation, mainly the G1F glycoform (intact ESI-MS)

Target: T1, biotinylated DEFA5 epitope peptide Biotin-RATCYCRTGRCAT (human, cysteine pairing not given here)
T1 peptide: Biotin-RATCYCRTGRCAT
Assay: SPR

| Binder | koff |
| --- | --- |
| B1 | 0.00261 s⁻¹ |
| B2 | 0.00253 s⁻¹ |
